This note sets out measurements from PMC5939945 (ACS combinatorial science, 2017).

One assay concerns the target eIF4E (Homo sapiens, UniProt P06730). As to the kind of experiment: PPI cat-ELCCA chemiluminescent competition assay of eIF4E–4E-BP1. The assay is classed as binding.
Assay [1] addresses biotinylated eIF4E (eukaryotic translation initiation factor 4E), N-terminal HaloTag fusion (UniProt P06730). Put plainly: ELISA. For orientation: ELISA stands for enzyme-linked immunosorbent assay.
Assay [2] has the same target. As to the kind of experiment: PPI cat-ELCCA.

Chain of unlabeled 4E-BP1 protein (Q13541 whole entry): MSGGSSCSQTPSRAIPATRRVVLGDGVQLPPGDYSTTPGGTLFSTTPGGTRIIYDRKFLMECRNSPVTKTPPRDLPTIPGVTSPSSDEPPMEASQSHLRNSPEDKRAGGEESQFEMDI
Chain of biotinylated eIF4E (eukaryotic translation initiation factor 4E), N-terminal HaloTag fusion (P06730 whole entry, the tested form may be a part): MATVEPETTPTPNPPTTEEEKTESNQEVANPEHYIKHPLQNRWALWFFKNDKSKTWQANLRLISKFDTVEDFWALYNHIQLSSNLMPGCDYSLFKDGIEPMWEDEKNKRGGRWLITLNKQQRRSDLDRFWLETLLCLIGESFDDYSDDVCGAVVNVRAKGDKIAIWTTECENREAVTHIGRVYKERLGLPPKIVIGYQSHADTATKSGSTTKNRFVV
Chain of eIF4E (P06730 2-217): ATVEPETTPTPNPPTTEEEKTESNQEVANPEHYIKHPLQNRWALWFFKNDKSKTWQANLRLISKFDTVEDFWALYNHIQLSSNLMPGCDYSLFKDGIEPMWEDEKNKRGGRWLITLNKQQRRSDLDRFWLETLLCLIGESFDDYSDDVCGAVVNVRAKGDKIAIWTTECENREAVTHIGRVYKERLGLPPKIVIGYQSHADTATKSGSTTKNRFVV
Chain of eIF4E (Q13541 2-118 partner): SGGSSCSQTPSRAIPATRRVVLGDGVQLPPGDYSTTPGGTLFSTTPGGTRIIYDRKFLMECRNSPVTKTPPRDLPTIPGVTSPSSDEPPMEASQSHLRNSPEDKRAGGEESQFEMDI
Chain of eIF4E (Q04637 whole entry partner, the tested form may be a part): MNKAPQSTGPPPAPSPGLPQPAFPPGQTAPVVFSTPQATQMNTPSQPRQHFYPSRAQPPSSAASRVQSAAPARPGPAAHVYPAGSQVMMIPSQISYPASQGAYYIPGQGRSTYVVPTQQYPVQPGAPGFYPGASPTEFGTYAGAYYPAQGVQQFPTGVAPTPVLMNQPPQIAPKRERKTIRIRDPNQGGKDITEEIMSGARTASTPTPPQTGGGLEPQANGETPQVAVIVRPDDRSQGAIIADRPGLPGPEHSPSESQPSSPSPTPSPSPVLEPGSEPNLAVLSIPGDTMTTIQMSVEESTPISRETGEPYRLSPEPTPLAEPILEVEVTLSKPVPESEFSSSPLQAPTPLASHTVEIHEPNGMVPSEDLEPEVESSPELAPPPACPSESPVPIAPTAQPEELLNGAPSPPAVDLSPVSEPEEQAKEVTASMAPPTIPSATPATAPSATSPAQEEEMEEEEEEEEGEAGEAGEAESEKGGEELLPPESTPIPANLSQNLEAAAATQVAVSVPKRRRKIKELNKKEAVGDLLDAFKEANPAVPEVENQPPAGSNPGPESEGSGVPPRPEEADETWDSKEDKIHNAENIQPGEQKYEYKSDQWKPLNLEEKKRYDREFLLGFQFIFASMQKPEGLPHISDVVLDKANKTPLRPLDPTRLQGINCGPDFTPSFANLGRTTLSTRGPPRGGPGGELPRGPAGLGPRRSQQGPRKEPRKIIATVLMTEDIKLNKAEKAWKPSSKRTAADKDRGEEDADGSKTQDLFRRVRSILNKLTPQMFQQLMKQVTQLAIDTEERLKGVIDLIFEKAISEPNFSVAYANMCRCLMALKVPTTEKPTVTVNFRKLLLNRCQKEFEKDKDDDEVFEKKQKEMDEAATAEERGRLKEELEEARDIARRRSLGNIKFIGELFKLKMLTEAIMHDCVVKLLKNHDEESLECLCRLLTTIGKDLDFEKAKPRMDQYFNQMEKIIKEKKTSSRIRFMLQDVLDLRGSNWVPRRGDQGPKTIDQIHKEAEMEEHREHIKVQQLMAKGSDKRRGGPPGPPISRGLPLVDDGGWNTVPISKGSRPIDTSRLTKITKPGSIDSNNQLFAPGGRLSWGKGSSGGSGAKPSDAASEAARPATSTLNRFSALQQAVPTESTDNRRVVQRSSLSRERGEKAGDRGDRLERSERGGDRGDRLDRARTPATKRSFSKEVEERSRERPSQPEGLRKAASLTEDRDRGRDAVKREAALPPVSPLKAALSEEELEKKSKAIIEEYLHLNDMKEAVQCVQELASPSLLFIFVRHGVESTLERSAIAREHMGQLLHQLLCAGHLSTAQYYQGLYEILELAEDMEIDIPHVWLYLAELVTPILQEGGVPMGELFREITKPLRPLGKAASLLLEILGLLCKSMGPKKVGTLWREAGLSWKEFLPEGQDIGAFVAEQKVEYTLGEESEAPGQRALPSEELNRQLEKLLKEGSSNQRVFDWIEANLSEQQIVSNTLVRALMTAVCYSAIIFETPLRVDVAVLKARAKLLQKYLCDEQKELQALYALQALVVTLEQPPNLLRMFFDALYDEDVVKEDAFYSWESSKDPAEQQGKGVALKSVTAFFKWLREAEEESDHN

Take `O=C(O)c1ccc(N2C(=O)/C(=C\c3ccc(-c4ccc([N+](=O)[O-])cc4)o3)C=C2c2ccccc2)cc1` [4E1RCat]: the 50% inhibitory concentration (IC50) at eIF4E amounted to 1800 ± 600 nM. Compound “unlabeled 4E-BP1 protein (from UniProt Q13541 1-118) (natural protein; other documents disagree on this pair)” registered an equilibrium dissociation constant (Kd) in assay [1] of 19 nM. Further, the IC50 in assay [2] was 11 nM.

By IC50 is commonly meant the midpoint of a concentration-inhibition curve. The low end stands for inhibition by little substance, the high end for a need for much substance. For orientation: Kd means the free concentration of one partner at which half of the binding sites on the other are occupied at equilibrium, for simple one-to-one binding. A low value points to tighter binding.
